B2: CYS mutated human CD200RLa, full length, on Ba/F3 cells expressing human DAP12 (receptor)
chain: GKQMTQNYSTIFAEGNISQPVLMDINAVLCCPPIALRNLIIITWEIILRGQPSCTKAYKKETNETKETNCTVERITWVSRPDQNSDLQILPVDTTHDGYYRCIVVTPDGNFHRGYHLQVLVTPEVNLFQSRNITAVCKAVTGKPAAQISWIPEGSICATKQEYWGNGTVTVKSTCPWEGHKSTVTCHVSHLTGNKSLSVKLNSGLRTSGSPALSLLIILYVKLSLFVVILVTTGFVFFQRINHVRKVL
notes: also called Human CD200RLa-Cys-mut; CYS mutated form of the receptor

The target in assay [1] is B2. In words: flow cytometry on Ba/F3 transfectants.
Assay [2] addresses T1, wild-type human CD200RLa extracellular domain fused to the Fc region of human IgG1 (human, UniProt Q6Q8B3 24-239).
T1 construct: also called wild-type human CD200RLa fusion protein; not shown: Fc region of human IgG1
T1 sequence: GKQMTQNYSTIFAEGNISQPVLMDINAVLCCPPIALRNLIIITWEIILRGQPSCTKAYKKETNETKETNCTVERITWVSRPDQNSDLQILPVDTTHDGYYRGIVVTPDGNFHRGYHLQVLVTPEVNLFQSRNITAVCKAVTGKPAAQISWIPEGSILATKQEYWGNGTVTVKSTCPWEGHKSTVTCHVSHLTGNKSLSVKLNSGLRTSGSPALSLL
In words: indirect ELISA on the fusion protein. In general terms: In an ELISA, binding on a coated surface is turned into a signal by an enzyme label.

In assay [3] the target is T2, CYS mutated human CD200RLa extracellular domain fused to the Fc region of human IgG1 (human, UniProt Q6Q8B3 24-239).
T2 construct: also called CYS mutated human CD200RLa fusion protein; Human CD200RLa-Cys-mut; not shown: Fc region of human IgG1
T2 chain: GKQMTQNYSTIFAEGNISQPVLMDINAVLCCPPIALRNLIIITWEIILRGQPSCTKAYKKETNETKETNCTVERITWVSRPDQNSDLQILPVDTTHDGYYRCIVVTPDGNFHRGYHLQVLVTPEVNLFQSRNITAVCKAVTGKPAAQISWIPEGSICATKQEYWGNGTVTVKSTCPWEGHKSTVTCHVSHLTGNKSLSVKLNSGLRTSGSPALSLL
In words: indirect ELISA on the fusion protein.

Assay [4] concerns the target T3, human DAP12 with a FLAG epitope at the N terminus, in Ba/F3 cells (human, UniProt O43914 22-113).
T3 construct: whole, on cells; also called FLAG-tagged DAP12
The assay can be described thus: surface appearance of FLAG-DAP12 on Ba/F3 transfectants, flow cytometry with anti-FLAG M2.

T3 sequence (O43914 22-113): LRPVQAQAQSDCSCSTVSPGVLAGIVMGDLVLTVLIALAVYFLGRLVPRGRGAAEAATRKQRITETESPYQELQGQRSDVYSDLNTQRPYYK

B1: DX182, rat anti-human inhibitory CD200R monoclonal antibody (antibody, V domains shown)
VL: EVQMTQSPSTLTASPGESVSINCKASKNIRSYLAWYQQKPGKPNKLLIYSGSTLHSGTPSRFSGSGFGTDFTLTIRNLEPEDFGLYYCQQHHEYPLTFGSGTKLEIKR
VH: EIQLQESGPGLVKPSQSLSLTCSVTGYTITSGYDWSWIRKFPGNKMEWMGYINYGGSTNYKPSLGSRISITRDTSKNQFFLQLNSVSPEDTATYYCAKYNEYKSYIYDWYFDFWGPGTMVTVSS
notes: Rat hybridoma antibody; Rat IgG2a served as its isotype control; also called rat DX182; anti-huCD200R
On to B1, for which the binding result in assay [1], in assay [2] and in assay [3] was “no binding” in each case.

Regarding B2, the binding result in assay [4] is “binds”.

Source of the values: patent US20100178296A1 (SCHERING, published 2010).
